Data published in US20230090014A1 (NANJING SANHOME PHARMACEUTICAL, published 2023).
Changes are numbered by the printed parent chain. Read-outs that look alike come from different tables or passages of the source.

B1: AB6.12-IgG4P (antibody, V domains shown)
VH: QMQLVQSGAEVKKTGSSVKVSCKASGFNIKDYYLHWVRQAPGQALEWMGWIDPDQGDTEYAQKFQDRVTITRDRSMSTAYMELSSLRSEDTAMYYCNAAYGSSSYPMDYWGQGTTVTVSS
VL: NIQMTQSPSAMSASVGDRVTITCKASQDIHRYLSWFQQKPGKVPKHLIYRANRLVSGVPSRFSGSGSGTEFTLTISSLQPEDFATYYCLQYDEFPYTFGGGTKVEIKR
notes: Anti-CD47 control antibody from WO2013/119714; also called AB06.12-4P; AB06.12-P
B2: Hu26T-31-PE (antibody, IgG4, V domains shown)
VH: QVQLVQSGAEVKKPGASVKVSCKASGYTFTDYYMNWVRQAPGQGLEWIGRIYPGSGLTYYNAKFKGRATVTADKSTSTVYMELSSLRSEDTAVYYCARTSYGSSFPHVWGQGTTVTVSS
VL: DIQMTQSPSSLSASVGDRVTITCKSSQSLLNVNDQKNYLAWYQQKPGKAPKLLIYFASTRESGVPSRFSGSGSGTDFTLTISSLQPEDFATYYCQQHYSTPLTFGQGTKLEIK
notes: also called humanized anti-CD47 antibody Hu26T-31-PE
B3: Hu34-39-PE (antibody, IgG4, V domains shown)
VH: QVQLQESGPGLVKPSQTLSLTCKASGYTFTNYWITWVKQRPGQGLEWIGDITPGRGETNYNQKFKGRVTLTVDISASTAYMELSSLRSEDTAVYYCSRWGLRRGDYWGQGTSVTVSS
VL: EIVLTQSPGTLSLSPGERATLSCRASSSVSSSYLNWYQQKSGASPKLWIYSTSNLASGVPGRFSGSGSGTSYSLTISSVEAEDAATYYCQQYSGYPLTFGAGTKLEVK
notes: also called humanized anti-CD47 antibody Hu34-39-PE
B4: Hu58A-14-PE (antibody, IgG4, V domains shown)
VH: EVQLLESGGGLVQPGGSLRLSCAASGFIFSRFGMAWVRQTPDKRLEWVATISSGGSYTYYPDSVKGRLTISRDNAKTTLYLQMRSLKSEDTAMYYCARQGLLDYLYALDYWGQGTAVTVSS
VL: DIQMTQSPSSVSASIGDRVTITCKASQDINSFLAWFQQKPGKSPRPLIYRAYRLVDGVPSRFSGVGSGQDYSLTISSLDYEDLGIYYCQQYVEFPPTFGAGTMLELK
notes: also called humanized anti-CD47 antibody Hu58A-14-PE
B5: ScFab (HuPL7-21Ks/Hu34-39Hs) (bispecific antibody)
chain 1: not shown
chain 2: EIVLTQSPGTLSLSPGERATLSCRASSSVSSSYLNWYQQKSGASPKLWIYSTSNLASGVPGRFSGSGSGTSYSLTISSVEAEDAATYYCQQYSGYPLTFGAGTKLEVKRTVAAPSVFIFPPSDEQLKSGTASVVCLLNNFYPREAKVQWKVDNALQSGNSQESVTEQDSKDSTYSLSSTLTLSKADYEKHKVYACEVTHQGLSSPVTKSFNRGECGGGGSGGGGSGGGGSGGGGSGGGGSGGGGSQVQLQESGPGLVKPSQTLSLTCKASGYTFTNYWITWVKQRPGQGLEWIGDITPGRGETNYNQKFKGRVTLTVDISASTAYMELSSLRSEDTAVYYCSRWGLRRGDYWGQGTSVTVSSASTKGPSVFPLAPCSRSTSESTAALGCLVKDYFPEPVTVSWNSGALTSGVHTFPAVLQSSGLYSLSSVVTVPSSSLGTKTYTCNVDHKPSNTKVDKRVESKYGPPCPPCPAPEFEGGPSVFLFPPKPKDTLMISRTPEVTCVVVDVSQEDPEVQFNWYVDGVEVHNAKTKPREEQFNSTYRVVSVLTVLHQDWLNGKEYKCKVSNKGLPSSIEKTISKAKGQPREPQVCTLPPSQEEMTKNQVSLSCAVKGFYPSDIAVEWESNGQPENNYKTTPPVLDSDGSFFLVSRLTVDKSRWQEGNVFSCSVMHEALHNHYTQKSLSLSLGK
notes: also called BiAb; Bi Ab
B6: ScFab (HuPL16-42Ks/Hu34-39Hs) (bispecific antibody)
chain 1: not shown
chain 2: B5 chain 2
B7: SHC025-26 (antibody, IgG1, V domains shown)
VH: QVQLKQSGAELVRPGASVKLSCKASGYIFTDYYMNWVKQRPGQGLEWIARIYPGSGLTYYNAKFKGKATVTAEKSSSTAYMQLSSLTSEDSAVYFCARCSYGSSFPHVWGTGTTVTVSS
VL: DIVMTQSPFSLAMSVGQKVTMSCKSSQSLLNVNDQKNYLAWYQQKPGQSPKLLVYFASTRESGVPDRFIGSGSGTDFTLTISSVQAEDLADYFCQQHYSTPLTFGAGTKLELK
notes: tested as culture supernatant
B8: SHC025-34 (antibody, IgG2c, V domains shown)
VH: QVQLQQPGAELVKPGASVKMSCKASGYTFTNYWITWVKQRPGQGLEWIGDITPGRGETNYNEKFKSKATLTVDTSSSTAYMQLTSLTSEDSAVYYCSRWGLRRGDYWGQGTSVTVSS
VL: B3 VL with I2N, G9A, T10I, L11M, L13A, R18K, A19V, L21M, S22T
notes: tested as culture supernatant
B9: SHC025-58 (antibody, IgG2b, V domains shown)
VH: B4 VH with L5V, G10D, Q13E, R19K
VL: B4 VL with Q3K, T5I, V11M, S12Y, S14G, I15L, D17E, I21F, T22N, A34C
notes: tested as culture supernatant

Experiments:
[1] = target: T1, Human CD47-His protein (human, UniProt Q08722 19-136); test: ELISA on coated human CD47-His, anti-human IgG HRP, OD450
[2] = target: T2, Cynomolgus CD47-His (cynomolgus, UniProt A0A2K5X523 19-139); test: ELISA on coated cynomolgus CD47-His, anti-human IgG HRP, OD450
T2 construct: Bought protein; also called monkey CD47

[3] = target: T3, CD47 on the surface of CHO-K1-E5 cells (human, UniProt Q08722 19-323); test: cell based ELISA on fixed CHO-K1-E5 cells, anti-human IgG HRP, OD450
T3 construct: Full length CD47 expressed from pTargeT-CD47 in CHO-K1 cells; also called CD47 on cell surface; CHO-K1-hCD47

[4] = target: T4, CD47(19-136)-hFc (human, biotin-labelled in the Octet assay of Example 8 (sites not given)); test: BLI (Fortebio Octet RED96), biotinylated CD47-hFc on SA sensor, antibody in solution
T4 construct: tied by name; also called CD47-hFc; CD47-hFc-Biotin

[5] = target: T3, CD47 on the surface of CHO-K1-E5 cells; test: FACS blocking assay on CHO-K1-E5 cells; blocked ligand SIRPα-Biotin, PE streptavidin
[6] = target: T3, CD47 on the surface of CHO-K1-E5 cells; test: FACS on CHO-K1-hCD47 cells, PE anti-human IgG
[7] = target: T1, Human CD47-His protein; test: ELISA on coated human CD47-His, HRP anti-human IgG, OD450
[8] = target: T3, CD47 on the surface of CHO-K1-E5 cells; test: FACS blocking assay on CHO-K1-hCD47 cells; blocked ligand SIRPα-biotin, PE-SA
[9] = target: T5, hCD47 on the surface of Raji-hPD-L1 cells (human, UniProt Q08722 19-323); test: FACS on Raji-hPD-L1 cells (carry both hPD-L1 and hCD47), PE anti-human IgG Fc
T5 construct: whole, on cells

[10] = target: T5, hCD47 on the surface of Raji-hPD-L1 …; test: as above; remark: listed apart in the source
[11] = target: T1, Human CD47-His protein; test: competition ELISA on coated CD47-His; blocked ligand SIRPα-biotin (2 µg/mL), SA-HRP, OD450
[12] = target: T3, CD47 on the surface of CHO-K1-E5 cells; test: FACS on CHO-K1-hCD47 cells
[13] = target: T1, Human CD47-His protein; test: ELISA, human CD47-His coated
[14] = target: T6, hPD-L1 on the surface of CHO-K1-hPD-L1 and Raji-hPD-L1 cells (human, UniProt Q9NZQ7 19-238); test: FACS on CHO-K1-hPD-L1 cells, PE anti-human IgG
T6 construct: also called CHO-K1-PD-L1; human PD-L1 on cell surface

[15] = target: T1, Human CD47-His protein; test: competition ELISA: CD47-His coated, SIRPα-biotin as competitor
[16] = target: T3, CD47 on the surface of CHO-K1-E5 cells; test: competition FACS on CHO-K1-hCD47 cells, SIRPα-biotin as competitor
[17] = target: Human PD-L1-His protein (human, UniProt Q9NZQ7 19-238, limits assumed); test: ELISA on coated human PD-L1-His, HRP anti-human IgG, OD450
[18] = target: T6, hPD-L1 on the surface of CHO-K1-hPD-L1 …; test: FACS blocking assay on CHO-K1-hPD-L1 cells; blocked ligand PD-1-mFc (1 µg/mL), PE anti-mouse IgG
[19] = target: Human PD-L1-hFC protein (human, UniProt Q9NZQ7 19-238, limits assumed); test: competition ELISA on coated PD-L1-hFc; blocked ligand PD-1-mFc (1 µg/mL), anti-mouse IgG HRP, OD450
[20] = target: PD-L1-mFc (UniProt Q9NZQ7 19-238, limits assumed); test: competition ELISA on coated CD80-hFc; antibody mixed with PD-L1-mFc, bound PD-L1-mFc detected with anti-mouse IgG HRP, OD450; parameters: unit not given here
[21] = target: T1, Human CD47-His protein; test: ELISA of hybridoma supernatant, binding activity to CD47

T4 sequence (chain, as listed by the source limits assumed): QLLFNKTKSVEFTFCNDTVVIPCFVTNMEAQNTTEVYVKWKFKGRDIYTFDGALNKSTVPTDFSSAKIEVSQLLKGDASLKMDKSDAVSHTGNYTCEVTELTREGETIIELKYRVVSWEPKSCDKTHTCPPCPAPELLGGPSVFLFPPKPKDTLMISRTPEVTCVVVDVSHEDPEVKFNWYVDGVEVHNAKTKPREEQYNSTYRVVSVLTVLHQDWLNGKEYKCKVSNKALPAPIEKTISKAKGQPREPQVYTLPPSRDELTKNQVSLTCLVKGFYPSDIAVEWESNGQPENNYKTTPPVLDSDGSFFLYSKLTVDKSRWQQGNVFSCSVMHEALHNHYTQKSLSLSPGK
T6 sequence (Q9NZQ7 19-238): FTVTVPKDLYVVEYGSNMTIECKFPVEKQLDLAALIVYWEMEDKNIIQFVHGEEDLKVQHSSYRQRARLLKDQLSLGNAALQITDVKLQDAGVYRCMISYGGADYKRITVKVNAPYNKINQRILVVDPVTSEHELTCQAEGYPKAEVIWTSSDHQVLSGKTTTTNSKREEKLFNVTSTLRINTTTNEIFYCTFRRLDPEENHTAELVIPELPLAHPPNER
Chain of Human PD-L1-His protein (Q9NZQ7 19-238 limits assumed): as the sequence (Q9NZQ7 19-238) above
Chain of Human PD-L1-hFC protein (Q9NZQ7 19-238 limits assumed): as the sequence (Q9NZQ7 19-238) above
Chain of PD-L1-mFc (Q9NZQ7 19-238 limits assumed): as the sequence (Q9NZQ7 19-238) above

Binder	EC50 (read off the curve) [1] [nM]	EC50 (read off the curve) [2] [nM]	EC50 (read off the curve) [3] [nM]	Kd [4] [nM]	koff [4] [s⁻¹]	kon [4] [M⁻¹ s⁻¹]	IC50 (read off the curve) [5] [nM]	EC50 (read off the curve) [6] [nM]	EC50 (read off the curve) [7] [nM]	IC50 (read off the curve) [8] [nM]	binding result [21]	other results
B1	~0.08	~0.1	~0.1	0.101	0.000485	4.8e+06	~1					
B2	~0.1	~0.1	~0.1	0.0587	6.13e-05	1.04e+06	~1					
B3	~0.08	~0.1	~0.1	0.113	0.000758	6.69e+06	~1	~1	~60	~2		EC50 (read off the curve) [9]: ~0.2 nM; EC50 (read off the curve) [10]: ~0.1 nM; IC50 (read off the curve) [11]: ~100 nM
B4	~0.08	~0.1	~0.1	0.0946	0.000168	1.78e+06	~5					
B5								~10	~2000	~8		fold decrease of Emax against Hu34-39-PE [12]: ~2 times; fold increase of EC50 against Hu34-39-PE [12]: ~4 times; fold increase of binding EC50 against Hu34-39-PE [13]: 40 fold; EC50 (read off the curve) [14]: ~2 nM; fold increase of IC50 against Hu34-39-PE [15]: ~40 times; fold increase of IC50 against Hu34-39-PE [16]: 3 times; EC50 (read off the curve) [17]: ~200 nM; IC50 (read off the curve) [18]: ~3 nM; IC50 (read off the curve) [19]: ~1000 nM; IC50 (read off the curve) [20]: ~10
B6								~10	~2000	~5		fold decrease of Emax against Hu34-39-PE [12]: ~2 times; fold increase of EC50 against Hu34-39-PE [12]: ~4 times; fold increase of binding EC50 against Hu34-39-PE [13]: ~40 times; EC50 (read off the curve) [14]: ~2 nM; fold increase of IC50 against Hu34-39-PE [15]: ~40 times; fold increase of IC50 against Hu34-39-PE [16]: 3 times; IC50 (read off the curve) [18]: ~5 nM
B7											binds	
B8											binds	
B9											binds	
